{
  "source": "patent US20230065782",
  "key": {"[1]": {"test_system": "control peptide, an HES-bearing peptide of the same length, with the same labeling, that does not contain the conformation-dependent cleavage site"}, "[2]": {"test_system": "eighteen amino acid peptide containing the amino acid sequence PLGIA, covalently labeled with the same fluorophore near each end (HES structure)"}},
  "data": [
    {"substance": "matrix metalloprotease-9 (MMP-9)", "values": [
      {"measurement": "fluorescence intensity on addition of the MMP", "setting": "[1]", "result": "The fluorescence of the latter does not increase upon addition of the MMP"},
      {"measurement": "fluorescence intensity on cleavage of the HES peptide (peptide at 2 uM, pH 7.5 buffer)", "setting": "[2]", "result": "Cleavage of the peptide gives rise to an increase in fluorescence intensity"},
      {"measurement": "reverse-phase HPLC retention time of the peptide before and after exposure to the protease", "setting": "[2]", "result": "After exposure to MMP-9, the major peaks were at ca. 30 and 31 minutes with the almost complete disappearance of the 38 minute peak"}
    ]}
  ]
}
